Values quoted from earlier work in publication PMC6396024, “Artemin and an Artemin-Derived Peptide, Artefin, Induce Neuronal Survival, and Differentiation Through Ret and NCAM” (Frontiers in Molecular Neuroscience, 2019).

Test system: NCAM
Settings: ref Paratcha et al., 2003; Nielsen et al., 2009; cited from earlier work
From the text: We have previously shown that the GDNF-binding site for NCAM is localized to the heel region and that gliafin, a GDNF-derived peptide covering this region, binds to NCAM ([Nielsen et al., 2009]). As the tertiary structure of ARTN is similar to that of GDNF, we speculated that the artefin motif also contains a potential binding site for NCAM. […] Whether NCAM can be an alternative receptor for other GFLs has been establish ...

B1: GDNF: glial cell line-derived neurotrophic factor (protein, UniProt P39905 78-211, looked up)
Glial cell line-derived …: SPDKQMAVLPRRERNRQAAAANPENSRGKGRRGQRGKNRGCVLTAIHLNVTDLGLGYETKEELIFRYCSGSCDAAETTYDKILKNLSRNRRLVSDKVGQACCRPIAFDDDLSFLDDNLVYHILRKHSAKRCGCI
Question: For B1, which “interaction with NCAM” value is on record?
Answer: interacts directly with NCAM
